# B1: SARS-CoV-2 N_(1–25) peptide (residues 1-25 of the N protein) (peptide)
# peptide: MSDNGPQNQRNAPRITFGGPSDSTG
# B2: SARS-CoV-2 N_(1–25) peptide, T16A mutant (peptide)
# peptide: MSDNGPQNQRNAPRIAFGGPSDSTG
# B3: SARS-CoV-2 N_(1–25) peptide, G18T mutant (peptide)
# peptide: MSDNGPQNQRNAPRITFTGPSDSTG
# B4: SARS-CoV-2 N_(1–25) peptide, I15A mutant (peptide)
# peptide: MSDNGPQNQRNAPRATFGGPSDSTG
# Assays:
# Assay in all cases: ITC
# [1] = target: G3BP1_(NTF2) V11A mutant (human, UniProt Q13283 1-139, V11A)
# [2] = target: G3BP1_(NTF2) F124A mutant (human, UniProt Q13283 1-139, F124A)
# [3] = target: G3BP1_(NTF2) Q18A mutant (human, UniProt Q13283 1-139, Q18A)
# [4] = target: G3BP1_(NTF2) F33A mutant (human, UniProt Q13283 1-139, F33A)
# [5] = target: NTF2-like domain of human G3BP1 (residues 1-139) (human, UniProt Q13283 1-139)
# Chain of NTF2-like domain of human G3BP1 (residues 1-139) (Q13283 1-139): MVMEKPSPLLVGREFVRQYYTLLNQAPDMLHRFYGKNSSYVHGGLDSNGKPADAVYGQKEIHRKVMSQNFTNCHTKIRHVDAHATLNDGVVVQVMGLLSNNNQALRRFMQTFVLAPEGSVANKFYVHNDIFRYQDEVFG
# Chain of G3BP1_(NTF2) Q18A mutant (Q13283 1-139 Q18A): as the sequence (Q13283 1-139) above, with Q18A counted along it
# Chain of G3BP1_(NTF2) V11A mutant (Q13283 1-139 V11A): as the sequence (Q13283 1-139) above, with V11A counted along it
# Chain of G3BP1_(NTF2) F124A mutant (Q13283 1-139 F124A): as the sequence (Q13283 1-139) above, with F124A counted along it
# Chain of G3BP1_(NTF2) F33A mutant (Q13283 1-139 F33A): as the sequence (Q13283 1-139) above, with F33A counted along it
binder,measurement,setting,value
B1,fold reduction of binding against wild-type G3BP1_(NTF2),[1],~10 fold
same,fold reduction of binding against wild-type G3BP1_(NTF2),[2],~20 fold
same,dH,[3],-15.1 kcal/mol
same,dH,[4],-21.3 kcal/mol
B2,fold reduction of binding against wild-type N_(1–25),[5],~3 fold
B3,fold reduction of binding affinity against wild-type N_(1–25),[5],~6 fold
B4,fold reduction of binding against wild-type N_(1–25),[5],> 10 fold

# Reference: PMC8882607 (Journal of Molecular Biology, 2022)
